Test in all cases: SPR (Biacore); KD of H240-Kn033/H240-Hl033/L73-k0 divided by KD of this variant
Background: Surface plasmon resonance follows binding to a sensor surface in real time, without labels.

The target of one assay is T1, FcgRIIaR (human, UniProt P12318 34-217).
T1 construct: extracellular domain; also called FcγRIIa R; FcgRIIa type R; not shown: His tag attached to the C terminus
T1 sequence (looked up): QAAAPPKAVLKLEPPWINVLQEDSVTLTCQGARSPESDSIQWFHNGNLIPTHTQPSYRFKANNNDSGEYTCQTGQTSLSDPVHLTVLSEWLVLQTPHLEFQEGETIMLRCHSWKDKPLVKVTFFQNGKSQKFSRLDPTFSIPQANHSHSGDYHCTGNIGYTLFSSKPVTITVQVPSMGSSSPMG
The procedure: (§1) H240-Kn204/H240-Hl211/L73-k0 and H240-Kn205/H240-Hl212/L73-k0 were prepared according to the method of Reference Example 1, by combining H240-Kn204 as one of the H chains and L73-k0 as the L chains with H240-Hl211 as the other H chain, and by combining H240-Kn205 as one of the H chains and L73-k0 as the L chains with H240-Hl212 as the other H chain, and then expressing them. The binding of the prepared variants to FcgRIa, FcgRIIaR, FcgRIIaH, FcgRIIb, FcgRIIIaF, and FcgRIIIaV was measured according to the method of Reference Example 8.
(§2) “fold 2aR”, “fold 2aH”, “fold 2b”, “fold 3aF”, and “fold 3aV” show the relative binding activity of each variant to FcgRIIaR, FcgRIIaH, FcgRIIb, FcgRIIIaF, and FcgRIIIaV, respectively, when the binding activity of H240-Kn033/H240-Hl033/L73-k0, a variant produced by introducing only alterations that promote formation of a heterodimerized antibody into a native IgG1, is defined as 1. Specifically, they are values obtained by dividing the KD value of H240-Kn033/H240-Hl033/L73-k0 for each FcgR by the KD value of an individual variant for each FcgR.
(§3) Analysis of interaction between objective antibody and the FcγR was carried out using Biacore T100 (GE Healthcare), Biacore T200, Biacore A100, and Biacore 4000. HBS-EP+ (GE Healthcare) was used as the running buffer, and the measurement temperature was set to 25° C. Chips produced by immobilizing the antigen peptide by the amine coupling method to a Series S sensor Chip CM5 (GE Healthcare), chips produced by allowing preliminarily biotinylated antigen peptides to interact with and immobilize onto a Series S Sensor Chip SA (certified) (GE Healthcare), chips produced by immobilizing Protein L (ACTIGEN, BioVision) to Series S Sencor Chip CM5 (GE Healthcare), or chips produced by immobilizing Protein A/G (Thermo Scientific) to Series S Sencor Chip CM5 (GE Healthcare) were used. Antibodies of interest were captured onto these chips, and allowed to interact to each FcγR diluted with running buffer.

Another assay has as its target T2, FcgRIIIaV (human, UniProt P08637 17-208).
T2 construct: extracellular domain; also called FcγRIIIa V; 3aV; not shown: His tag attached to the C terminus
The procedure:
as §1, §2, §3

Another assay has as its target T3, FcgRIIaH (human, UniProt P12318 34-217).
T3 construct: extracellular domain; also called FcγRIIa H; FcgRIIa type H; not shown: His tag attached to the C terminus
T3 sequence (looked up): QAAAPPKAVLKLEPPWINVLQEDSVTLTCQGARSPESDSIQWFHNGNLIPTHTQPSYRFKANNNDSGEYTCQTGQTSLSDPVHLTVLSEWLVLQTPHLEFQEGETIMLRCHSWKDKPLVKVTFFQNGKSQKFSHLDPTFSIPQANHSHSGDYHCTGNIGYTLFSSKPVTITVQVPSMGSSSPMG
The protocol: as §1, §2, §3

For a further assay, the target named is T4, FcgRIIIaF (human, UniProt P08637 17-208).
T4 construct: extracellular domain; also called FcγRIIIa F; 3aF; not shown: His tag attached to the C terminus
The procedure: as §1, §2, §3

The target in another assay is T5, FcgRIIb (human, UniProt P31994 43-217).
T5 construct: extracellular domain; also called FcγRIIb; 2b; not shown: His tag attached to the C terminus
T5 sequence (looked up): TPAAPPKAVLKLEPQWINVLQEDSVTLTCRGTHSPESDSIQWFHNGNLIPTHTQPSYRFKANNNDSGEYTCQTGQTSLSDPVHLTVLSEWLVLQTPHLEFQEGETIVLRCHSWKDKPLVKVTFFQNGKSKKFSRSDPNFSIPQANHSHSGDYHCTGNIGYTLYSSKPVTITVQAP
The protocol:
as §1, §2, §3

T2 sequence (P08637 17-208 F176V limits assumed): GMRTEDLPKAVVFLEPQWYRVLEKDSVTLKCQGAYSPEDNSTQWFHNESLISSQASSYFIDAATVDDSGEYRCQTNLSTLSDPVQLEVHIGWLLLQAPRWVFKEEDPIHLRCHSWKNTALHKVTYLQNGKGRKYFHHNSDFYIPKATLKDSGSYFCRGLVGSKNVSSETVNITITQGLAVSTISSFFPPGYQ
T4 sequence (P08637 17-208): as the sequence (P08637 17-208 F176V limits assumed) above, with V160F counted along it

B1: H240-Kn205/H240-Hl212/L73-k0 (antibody, human IgG1, kappa)
heavy 1: QDQLVQSGAEVKKPGASVKVSCKASGFNIKDTYIQWVRQAPGQGLEWMGRIDPLRKQTKYREKFEGRVTITADTSTNTAYMELSSLRSEDTAVYYCVRSGREFDYWGQGTLVTVSSASTKGPSVFPLAPSSKSTSGGTAALGCLVKDYFPEPVTVSWNSGALTSGVHTFPAVLQSSGLYSLSSVVTVPSSSLGTQTYICNVNHKPSNTKVDKKVEPKSCDKTHTCPPCPAPEYLGGPSVFLFPPKPKDTLMISRTPEVTCVVVDVSHEDPEVKFNWYVDGVEVHNAKTKPREEQWNCTYRVVSVLTVLHQDWLNGKEYKCKVSNKALPAPIEKTISKAKGQPREPQVCTLPPSRDELTKNQVSLWCLVKGFYPSDIAVEWESNGQPENNYKTTPPVLDSDGSFFLYSKLTVDKSRWQQGNVFSCSVMHEALHNHYTQKSLSLSP
heavy 2: QDQLVQSGAEVKKPGASVKVSCKASGFNIKDTYIQWVRQAPGQGLEWMGRIDPLRKQTKYREKFEGRVTITADTSTNTAYMELSSLRSEDTAVYYCVRSGREFDYWGQGTLVTVSSASTKGPSVFPLAPSSKSTSGGTAALGCLVKDYFPEPVTVSWNSGALTSGVHTFPAVLQSSGLYSLSSVVTVPSSSLGTQTYICNVNHKPSNTKVDKKVEPKSCDKTHTCPPCPAPELLGGPDVFLFPPKPKDTLMISRTPEVTCVVVDVSHEDPEVKFNWYVDGVEVHNAKTKPREEQYNSTYRVVSVLTVLHQDWLNGKEYKCKVSNKALPAPIEVTISKAKGQPREPQVYTLPPSRCELTKNQVSLSCAVKGFYPSDIAVEWESNGQPENNYKTTPPVLDSDGSFFLVSKLTVDKSRWQQGNVFSCSVMHEALHNHYTQKSLSLSP
light: DIQMTQSPSSLSASVGDRVTITCRASQDIHKYIAWYQQKPGQAPRLLIQYTSTLQPGVPSRFSGSGSGTDYTFTISSLQPEDIATYYCLQYEQLRTFGGGTKVEIKRTVAAPSVFIFPPSDEQLKSGTASVVCLLNNFYPREAKVQWKVDNALQSGNSQESVTEQDSKDSTYSLSSTLTLSKADYEKHKVYACEVTHQGLSSPVTKSFNRGEC
notes: Anti-epiregulin heterodimerized IgG1, knobs-into-holes; L234Y/Y296W/S298C in one H chain, S239D/K334V in the other
As to B1, in the assay with FcgRIIaR, the “fold 2aR” value was determined as 1.2 fold. Besides, the “fold 3aV” value with FcgRIIIaV was 11.4 fold. The “fold 2aH” value in the assay with FcgRIIaH worked out at 1.4 fold. Besides, in the assay with FcgRIIIaF, the “fold 3aF” value stood at 24.2 fold. For the same molecule, the “fold 2b” value with FcgRIIb is 2.1 fold.

B2: H240-Kn207/H240-Hl076/L73-k0 (antibody, human IgG1, kappa)
heavy 1: QDQLVQSGAEVKKPGASVKVSCKASGFNIKDTYIQWVRQAPGQGLEWMGRIDPLRKQTKYREKFEGRVTITADTSTNTAYMELSSLRSEDTAVYYCVRSGREFDYWGQGTLVTVSSASTKGPSVFPLAPSSKSTSGGTAALGCLVKDYFPEPVTVSWNSGALTSGVHTFPAVLQSSGLYSLSSVVTVPSSSLGTQTYICNVNHKPSNTKVDKKVEPKSCDKTHTCPPCPAPEVQWGPMVFLFPPKPKDTLMISRTPEVTCVVVDVSDEEPEVKFNWYVDGVEVHNAKTKPREEQYNATYRVVSVLTVLHQDWLNGKEYKCKVSNKALPAPIEKTISKAKGQPREPQVCTLPPSRDELTKNQVSLWCLVKGFYPSDIAVEWESNGQPENNYKTTPPVLDSDGSFFLYSKLTVDKSRWQQGNVFSCSVMHEALHNHYTQKSLSLSP
heavy 2: QDQLVQSGAEVKKPGASVKVSCKASGFNIKDTYIQWVRQAPGQGLEWMGRIDPLRKQTKYREKFEGRVTITADTSTNTAYMELSSLRSEDTAVYYCVRSGREFDYWGQGTLVTVSSASTKGPSVFPLAPSSKSTSGGTAALGCLVKDYFPEPVTVSWNSGALTSGVHTFPAVLQSSGLYSLSSVVTVPSSSLGTQTYICNVNHKPSNTKVDKKVEPKSCDKTHTCPPCPAPELLGGPSVFLFPPKPKDTLMISRTPEVTCVVVDVSHEEPEVKFNWYVDGVEVHNAKTKPREEQYNSTYRVVSVLTVLHQDWLNGKEYKCKVSNDALPMPIEETISKAKGQPREPQVYTLPPSRCELTKNQVSLSCAVKGFYPSDIAVEWESNGQPENNYKTTPPVLDSDGSFFLVSKLTVDKSRWQQGNVFSCSVMHEALHNHYTQKSLSLSP
light: DIQMTQSPSSLSASVGDRVTITCRASQDIHKYIAWYQQKPGQAPRLLIQYTSTLQPGVPSRFSGSGSGTDYTFTISSLQPEDIATYYCLQYEQLRTFGGGTKVEIKRTVAAPSVFIFPPSDEQLKSGTASVVCLLNNFYPREAKVQWKVDNALQSGNSQESVTEQDSKDSTYSLSSTLTLSKADYEKHKVYACEVTHQGLSSPVTKSFNRGEC
notes: Anti-epiregulin heterodimerized IgG1, knobs-into-holes
With B2, the “fold 2aR” value in the assay with FcgRIIaR was 1.1 fold. Also, in the assay with FcgRIIIaV, the “fold 3aV” value came out at 98 fold. Moreover, the “fold 2aH” value with FcgRIIaH came out at 3.1 fold. Moreover, the “fold 3aF” value with FcgRIIIaF was found to be 153 fold. In the assay with FcgRIIb, the “fold 2b” value amounted to 0.6 fold.

B3: H240-Kn208/H240-Hl076/L73-k0 (antibody, human IgG1, kappa)
heavy 1: QDQLVQSGAEVKKPGASVKVSCKASGFNIKDTYIQWVRQAPGQGLEWMGRIDPLRKQTKYREKFEGRVTITADTSTNTAYMELSSLRSEDTAVYYCVRSGREFDYWGQGTLVTVSSASTKGPSVFPLAPSSKSTSGGTAALGCLVKDYFPEPVTVSWNSGALTSGVHTFPAVLQSSGLYSLSSVVTVPSSSLGTQTYICNVNHKPSNTKVDKKVEPKSCDKTHTCPPCPAPEDQWGPMVFLFPPKPKDTLMISRTPEVTCVVVDVSDEEPEVKFNWYVDGVEVHNAKTKPREEQYNATYRVVSVLTVLHQDWLNGKEYKCKVSNKALPAPIEKTISKAKGQPREPQVCTLPPSRDELTKNQVSLWCLVKGFYPSDIAVEWESNGQPENNYKTTPPVLDSDGSFFLYSKLTVDKSRWQQGNVFSCSVMHEALHNHYTQKSLSLSP
heavy 2: QDQLVQSGAEVKKPGASVKVSCKASGFNIKDTYIQWVRQAPGQGLEWMGRIDPLRKQTKYREKFEGRVTITADTSTNTAYMELSSLRSEDTAVYYCVRSGREFDYWGQGTLVTVSSASTKGPSVFPLAPSSKSTSGGTAALGCLVKDYFPEPVTVSWNSGALTSGVHTFPAVLQSSGLYSLSSVVTVPSSSLGTQTYICNVNHKPSNTKVDKKVEPKSCDKTHTCPPCPAPELLGGPSVFLFPPKPKDTLMISRTPEVTCVVVDVSHEEPEVKFNWYVDGVEVHNAKTKPREEQYNSTYRVVSVLTVLHQDWLNGKEYKCKVSNDALPMPIEETISKAKGQPREPQVYTLPPSRCELTKNQVSLSCAVKGFYPSDIAVEWESNGQPENNYKTTPPVLDSDGSFFLVSKLTVDKSRWQQGNVFSCSVMHEALHNHYTQKSLSLSP
light: DIQMTQSPSSLSASVGDRVTITCRASQDIHKYIAWYQQKPGQAPRLLIQYTSTLQPGVPSRFSGSGSGTDYTFTISSLQPEDIATYYCLQYEQLRTFGGGTKVEIKRTVAAPSVFIFPPSDEQLKSGTASVVCLLNNFYPREAKVQWKVDNALQSGNSQESVTEQDSKDSTYSLSSTLTLSKADYEKHKVYACEVTHQGLSSPVTKSFNRGEC
notes: as for B2
For B3, in the assay with FcgRIIaR, the “fold 2aR” value turned out to be 1.5 fold. Moreover, the “fold 3aV” value with FcgRIIIaV came out at 120 fold. Besides, in the assay with FcgRIIaH, the “fold 2aH” value turned out to be 1.7 fold. Also, in the assay with FcgRIIIaF, the “fold 3aF” value stood at 161 fold. For the same molecule, the “fold 2b” value with FcgRIIb was 1 fold.

The values are drawn from patent US20150344570A1 (published 2015).
